Experimental data as given in the supplement of paper PMC9112550, “Optimization of the antimicrobial peptide Bac7 by deep mutational scanning” (BMC Biology, 2022).

System: Escherichia coli TOP10
Assay: shrunken log2 fold change of peptide-encoding DNA abundance (4.5 h post-induction vs induction); higher = less antimicrobial activity (less host growth inhibition)
Settings: time post-induction: 4.5 h; library: site-saturation at positions 5, 18, 19, 20
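Also: peptides expressed intracellularly from a pBAD plasmid library in pooled LB shake-flask culture, induced with 0.3% L-arabinose, DNA abundance read by NGS, three biological replicates, DESeq2 with apeglm shrinkage.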

| Sequence | shrunken log2 fold change |
| --- | --- |
| RRIRARPPRLPRPRPRPAIAPRP | 0.547 |
| RRIRHRPPRLPRPRPRPLPHPRP | -0.162 |
| RRIRDRPPRLPRPRPRPFRQPRP | -0.137 |
| RRIRFRPPRLPRPRPRPDWNPRP | -0.287 |
| RRIRTRPPRLPRPRPRPFVHPRP | -0.138 |
| RRIRIRPPRLPRPRPRPYTEPRP | -0.512 |
| RRIRQRPPRLPRPRPRPGLQPRP | -0.0156 |
| RRIRQRPPRLPRPRPRPQELPRP | 0.157 |
| RRIRVRPPRLPRPRPRPVTSPRP | -0.558 |
| RRIRYRPPRLPRPRPRPQLKPRP | -0.526 |
| RRIRERPPRLPRPRPRPIRQPRP | 0.00357 |
| RRIRARPPRLPRPRPRPCGCPRP | 0.807 |
| RRIRARPPRLPRPRPRPHSQPRP | 0.0561 |
| RRIRFRPPRLPRPRPRPKPFPRP | 0.0515 |
| RRIRMRPPRLPRPRPRPFAVPRP | -0.109 |
| RRIRERPPRLPRPRPRPPRCPRP | -0.0309 |
| RRIRYRPPRLPRPRPRPDYIPRP | -0.0327 |
| RRIRTRPPRLPRPRPRPSWFPRP | -0.343 |
| RRIRHRPPRLPRPRPRPNTPPRP | 0.0157 |
| RRIRPRPPRLPRPRPRPSAQPRP | -0.0511 |
| RRIRCRPPRLPRPRPRPGYAPRP | 0.085 |

| Sequence | shrunken log2 fold change |
| --- | --- |
| RRIRERPPRLPRPRPRPFWVPRP | 0.0389 |
| RRIRARPPRLPRPRPRPWWCPRP | -0.0725 |
| RRIRPRPPRLPRPRPRPEGKPRP | -0.124 |
| RRIRMRPPRLPRPRPRPGWPPRP | 0.595 |
| RRIRLRPPRLPRPRPRPCVLPRP | -0.44 |
| RRIRQRPPRLPRPRPRPKSIPRP | -0.695 |
| RRIRWRPPRLPRPRPRPYATPRP | 0.289 |
| RRIRGRPPRLPRPRPRPPRVPRP | 1.15 |
| RRIRVRPPRLPRPRPRPTVCPRP | 0.518 |
| RRIRMRPPRLPRPRPRPSQWPRP | 0.0206 |
| RRIRWRPPRLPRPRPRPERMPRP | 0.0689 |
| RRIRQRPPRLPRPRPRPTVPPRP | -0.0488 |
| RRIRCRPPRLPRPRPRPWFTPRP | -0.879 |
| RRIRERPPRLPRPRPRPPKCPRP | 0.0212 |
| RRIRGRPPRLPRPRPRPRKRPRP | 1.21 |
| RRIRWRPPRLPRPRPRPYFSPRP | -0.722 |
| RRIRMRPPRLPRPRPRPMLPPRP | 0.301 |
| RRIRQRPPRLPRPRPRPLYAPRP | -0.399 |
| RRIRVRPPRLPRPRPRPQCHPRP | -0.0451 |
| RRIRYRPPRLPRPRPRPLTQPRP | -0.416 |
| RRIRMRPPRLPRPRPRPLMKPRP | 0.313 |

| Sequence | shrunken log2 fold change |
| --- | --- |
| RRIRARPPRLPRPRPRPIKRPRP | 0.0415 |
| RRIRGRPPRLPRPRPRPGTQPRP | 0.143 |
| RRIRPRPPRLPRPRPRPFDGPRP | -0.214 |
| RRIRWRPPRLPRPRPRPMICPRP | -0.00725 |
| RRIRDRPPRLPRPRPRPQGYPRP | -0.0816 |
| RRIRRRPPRLPRPRPRPVMCPRP | 0.0382 |
| RRIRLRPPRLPRPRPRPQGGPRP | 0.0226 |
| RRIRSRPPRLPRPRPRPWGGPRP | 0.27 |
| RRIRIRPPRLPRPRPRPLPPPRP | 0.127 |
| RRIRLRPPRLPRPRPRPEFGPRP | 0.07 |
| RRIRGRPPRLPRPRPRPVYGPRP | 0.0598 |
| RRIRHRPPRLPRPRPRPKYDPRP | -0.246 |
| RRIRFRPPRLPRPRPRPFNTPRP | -0.688 |
| RRIRCRPPRLPRPRPRPFHPPRP | -0.075 |
| RRIRRRPPRLPRPRPRPQMLPRP | 0.246 |
| RRIRYRPPRLPRPRPRPAVDPRP | -0.0338 |
| RRIRMRPPRLPRPRPRPTDIPRP | 0.501 |
| RRIRERPPRLPRPRPRPLYNPRP | -0.264 |
| RRIRNRPPRLPRPRPRPCDIPRP | -0.0262 |
| RRIRRRPPRLPRPRPRPLNGPRP | 0.112 |
| RRIRARPPRLPRPRPRPFNRPRP | -0.277 |
